Assay results: patent US20130039920A1 (SHANGHAI CANCER INSTITUTE, published 2013)
Several values for one entry are separate records, joined by “and”; a condition that tells them apart may be missing. Equal entries are not always repeated.

How the values were obtained:
[1] = biological target: T1, recombinant EGFRvIII extracellular region protein (UniProt P00533 25-645); assay: non-competitive ELISA on coated rEGFRvIIIex; derived from the affinity constant
T1 construct: extracellular domain; also called rEGFRvIIIex; rEGFRvIII
Method: (§1) After the coated buffer was removed, the plates were washed with PBS one time followed by adding with 350 μl of PBS containing 5% of skimmed milk powder and incubating overnight. Then the plates were washed with PBS twice. […] The plates were incubated with antibodies at 37° C. for 1 hour and washed thrice with PBS. Then the plates were added with 100 μL of HRP-labeled goat anti-mouse secondary antibodies, incubated at 37° C. for 1 hour and washed 5 times with PBS followed by incubation with ABTS substrate for 15 min. The absorbance value was determined at 405 nm with a microplate reader. The binding curve was drawn according to the absorbance values to obtain the antibody concentration at half-maximal OD value (OD50%).
(§2) The concentrations are substituted into the formula K=(n−1)/2 (nAb′−Ab) to calculate the affinity constant, wherein, Ab′ and Ab represent the OD50% antibody concentration (mol/L) when the concentrations of antigen is Ag′ and Ag, n=Ag/Ag′. Six K values were obtained by paired comparison and averaged to obtain the final value.

[2] = biological target: T1, recombinant EGFRvIII extracellular …; assay: non-competitive ELISA, rEGFRvIIIex coated at 0.625 mg/L; antibody concentration at half-maximal OD
Method: as §1

[3] = biological target: T1, recombinant EGFRvIII extracellular …; assay: non-competitive ELISA on coated rEGFRvIIIex; average of six K values from paired coating concentrations
Method: as §1, §2

[4] = biological target: T1, recombinant EGFRvIII extracellular …; assay: non-competitive ELISA, rEGFRvIIIex coated at 1.25 mg/L; antibody concentration at half-maximal OD
Method: as §1

[5] = biological target: T1, recombinant EGFRvIII extracellular …; assay: non-competitive ELISA, rEGFRvIIIex coated at 2.5 mg/L; antibody concentration at half-maximal OD
Method: as §1

[6] = biological target: T1, recombinant EGFRvIII extracellular …; assay: non-competitive ELISA, rEGFRvIIIex coated at 5.0 mg/L; antibody concentration at half-maximal OD
Method: as §1

B1: monoclonal antibody 12H23 (antibody, V domains shown)
VH: DVQLQESGPGLVKPSQSLSLTCTVTAYSVTSDYAWNWIRQFPGNKLEWMGYISYSGTTRYNPSLKSRISITRDTSKNQFFLQLNSMTAEDTATYYCSRQGRGFPYWGQGTLVTVSA
VL: DILMTQSPSSMSVSLGDTVSITCHASQDINSNIGWLQQKPGKSFKGLIYHGTNLEDGVPSRFSGSGSGADYSLTISSLESEDFADYYCVQYAQFPWTFGGGTKLEIKR
notes: also called murine monoclonal antibody 12H23; clone 12H23
[1]
  Kd: 26 pM
[2]
  EC50: 2 ng/mL
[3]
  Ka: 3.8e+10 M⁻¹
[4]
  EC50: 0.0023 µg/mL and 0.015 nM
[5]
  EC50: 0.0025 µg/mL and 0.017 nM
[6]
  EC50: 0.003 µg/mL and 0.02 nM
